In US20210363266A1:

Assays:
[1] = target: human 4-1BB on the reporter cell strain HEK293F-h4-1BB-NFkB (human) (UniProt Q07011); experiment: cell-based or functional assay
[2] = target: human 4-1BB His protein (Sinobiological, Beijing #10041-H08H) (human) (UniProt Q07011); experiment: capture ELISA, antibody captured, biotinylated 4-1BB-his
Sequence of human 4-1BB His protein (Sinobiological, Beijing #10041-H08H) (human) (Q07011 24-186 limits assumed): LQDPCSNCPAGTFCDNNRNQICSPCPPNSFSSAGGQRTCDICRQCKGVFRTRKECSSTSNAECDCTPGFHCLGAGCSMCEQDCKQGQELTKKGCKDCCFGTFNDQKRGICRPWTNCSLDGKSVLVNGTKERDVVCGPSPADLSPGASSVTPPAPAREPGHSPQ

Sequence of human 4-1BB on the reporter cell strain HEK293F-h4-1BB-NFkB (human) (Q07011 24-255): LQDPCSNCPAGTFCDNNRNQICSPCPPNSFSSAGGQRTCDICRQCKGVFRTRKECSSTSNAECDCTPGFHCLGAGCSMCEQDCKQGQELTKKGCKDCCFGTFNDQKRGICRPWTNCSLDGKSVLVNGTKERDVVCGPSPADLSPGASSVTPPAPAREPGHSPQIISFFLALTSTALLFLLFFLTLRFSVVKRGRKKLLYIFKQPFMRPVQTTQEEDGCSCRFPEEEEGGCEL
Sequence of Urelumab (BMS) (antibody) (VH): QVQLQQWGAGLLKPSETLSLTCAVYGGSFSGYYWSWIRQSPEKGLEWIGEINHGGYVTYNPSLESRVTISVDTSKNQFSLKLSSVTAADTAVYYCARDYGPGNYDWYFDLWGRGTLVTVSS
Sequence of Urelumab (BMS) (antibody) (VL): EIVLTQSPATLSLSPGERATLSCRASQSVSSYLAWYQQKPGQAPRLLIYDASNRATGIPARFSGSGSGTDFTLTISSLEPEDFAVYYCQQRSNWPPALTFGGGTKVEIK

Row | Substance | luciferase activity (antibody at 10 nM) [1] | EC50 [2] [µg/mL]
1 | MOR7480 (Pfizer) (antibody) | 1000 | 
2 | Urelumab (BMS) (antibody) | 2190 | 0.192
3 | hIgG (antibody) | 290 | 
